# Non-standard residues stand in square brackets, D forms with d. Phe(4-Ac) = CC(=O)c1ccc(C[C@H](N)C(=O)O)cc1
# T1: human β-klotho, stably co-expressed with the Elk1-luciferase trans-reporter in HEK293 cells (HEK Luc Clone2) (human, UniProt Q86Z14 1-1044)
# T1 sequence: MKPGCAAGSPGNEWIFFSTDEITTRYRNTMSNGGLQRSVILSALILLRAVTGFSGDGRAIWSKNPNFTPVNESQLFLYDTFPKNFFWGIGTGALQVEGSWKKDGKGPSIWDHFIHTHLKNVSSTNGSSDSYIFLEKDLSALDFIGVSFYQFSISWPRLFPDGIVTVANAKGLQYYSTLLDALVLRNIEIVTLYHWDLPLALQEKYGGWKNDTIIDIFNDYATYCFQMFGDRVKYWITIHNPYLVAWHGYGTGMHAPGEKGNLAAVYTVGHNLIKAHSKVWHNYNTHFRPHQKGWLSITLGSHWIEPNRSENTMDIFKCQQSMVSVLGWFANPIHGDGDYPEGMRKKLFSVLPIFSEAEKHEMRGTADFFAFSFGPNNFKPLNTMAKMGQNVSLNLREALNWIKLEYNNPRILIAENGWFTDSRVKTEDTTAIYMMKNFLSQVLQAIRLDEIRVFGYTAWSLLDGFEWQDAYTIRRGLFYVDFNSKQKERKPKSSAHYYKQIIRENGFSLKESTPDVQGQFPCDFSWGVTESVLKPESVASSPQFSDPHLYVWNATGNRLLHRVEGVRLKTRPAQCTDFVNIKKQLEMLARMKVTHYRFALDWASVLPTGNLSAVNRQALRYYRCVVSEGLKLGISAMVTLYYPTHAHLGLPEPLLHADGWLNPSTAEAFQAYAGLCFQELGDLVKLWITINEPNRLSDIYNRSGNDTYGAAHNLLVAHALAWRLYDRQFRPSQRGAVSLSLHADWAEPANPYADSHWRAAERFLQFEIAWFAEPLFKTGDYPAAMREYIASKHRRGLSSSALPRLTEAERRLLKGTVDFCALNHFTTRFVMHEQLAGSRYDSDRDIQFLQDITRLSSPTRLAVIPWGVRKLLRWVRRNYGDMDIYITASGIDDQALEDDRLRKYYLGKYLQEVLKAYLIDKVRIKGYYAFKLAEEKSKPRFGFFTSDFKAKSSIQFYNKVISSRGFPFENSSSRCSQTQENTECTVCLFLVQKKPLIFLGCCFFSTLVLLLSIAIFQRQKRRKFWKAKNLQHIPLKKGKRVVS
# T2: human β-klotho with a C-terminal FLAG tag, stably expressed in a clonal HEK-293 cell line (human, UniProt Q86Z14 1-1044)
# T2 sequence: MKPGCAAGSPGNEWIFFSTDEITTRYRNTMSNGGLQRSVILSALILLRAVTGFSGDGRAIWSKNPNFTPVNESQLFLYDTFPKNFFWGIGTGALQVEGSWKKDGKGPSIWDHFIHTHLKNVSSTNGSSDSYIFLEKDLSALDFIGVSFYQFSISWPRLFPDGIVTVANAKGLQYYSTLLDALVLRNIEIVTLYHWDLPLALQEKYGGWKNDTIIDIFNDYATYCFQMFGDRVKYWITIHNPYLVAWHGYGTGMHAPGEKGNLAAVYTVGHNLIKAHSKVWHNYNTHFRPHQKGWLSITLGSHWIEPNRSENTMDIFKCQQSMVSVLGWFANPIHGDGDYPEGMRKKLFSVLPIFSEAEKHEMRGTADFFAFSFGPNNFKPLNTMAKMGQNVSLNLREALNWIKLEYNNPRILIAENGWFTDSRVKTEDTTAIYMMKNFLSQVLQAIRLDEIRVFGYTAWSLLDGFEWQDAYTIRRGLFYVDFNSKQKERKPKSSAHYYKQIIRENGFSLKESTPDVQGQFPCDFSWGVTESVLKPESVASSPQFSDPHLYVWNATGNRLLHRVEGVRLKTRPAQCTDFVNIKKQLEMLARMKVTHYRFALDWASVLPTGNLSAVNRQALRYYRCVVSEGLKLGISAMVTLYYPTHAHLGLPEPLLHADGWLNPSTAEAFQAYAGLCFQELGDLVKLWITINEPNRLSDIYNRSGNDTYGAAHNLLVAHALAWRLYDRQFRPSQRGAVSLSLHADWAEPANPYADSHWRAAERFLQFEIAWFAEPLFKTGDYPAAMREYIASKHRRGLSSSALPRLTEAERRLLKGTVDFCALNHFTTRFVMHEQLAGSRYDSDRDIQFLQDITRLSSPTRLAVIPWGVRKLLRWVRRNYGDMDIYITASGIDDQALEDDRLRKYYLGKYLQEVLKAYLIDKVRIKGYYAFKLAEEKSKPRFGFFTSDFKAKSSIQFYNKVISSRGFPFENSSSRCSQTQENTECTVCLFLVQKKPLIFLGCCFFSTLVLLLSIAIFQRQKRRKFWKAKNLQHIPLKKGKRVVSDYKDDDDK
# Columns and labels:
# Test in all cases: cell-based or functional assay
# [1] = biological target: T1, human β-klotho, stably co-expressed …
# [2] = biological target: T2, human β-klotho with a C-terminal FLAG …
# [3] = biological target: T1, human β-klotho, stably co-expressed …; remark: listed apart in the source
# [4] = biological target: T2, human β-klotho with a C-terminal FLAG …; remark: listed apart in the source
Binder,"Geometric Mean EC50, Elk1-luciferase assay [1] [nM]",EC50 in the pERK assay [2] [nM],"EC50 (geometric mean), 5 hour Elk1-luciferase assay [3] [nM]","pEC50, 5 hour Elk1-luciferase assay [3] [log M]",pERK EC50 [4] [nM]
Compound 181 [Fc(hIgG1f_1.1_186)-L7-FGF21 (Cmp. 2)] (Fc fusion) EPKSSDKTHTCPPCPAPEAEGAPSVFLFPPKPKDTLMISRTPEVTCVVVDVSHEDPEVKFNWYVDGVEVHNAKTKPREEQYNSTYRVVSVLTVLHQDWLNGKEYKCKVSNKALPSSIEKTISKAKGQPREPQVYTLPPSREEMTKNQVSLTCLVKGFYPSDIAVEWESNGQPENNYKTTPPVLDSDGSFFLYSKLTVDKSRWQQGNVFSCSVMHEALHNHYTQKSLSLSPGKGGGGGSGGGSGGGGSHPIPDSSPLLQFGGQVRQRYLYTDDAQQTEAHLEIREDGTVGGAADQSPESLLQLKALKPGVIQILGVKTSRFLCQRPDGALYGSLHFDPEACSFRELLLEDGYNVYQSEAHGLPLHLGSGRGPARFLPLPGLPPAPPEPPGILAPQPPDVGSSDPLSMVEPSQGRSPSYAS,0.8,,,,
Pegylated Compound 2 (ligand) MHPIPDSSPLLQFGGQVRQRYLYTDDAQQTEAHLEIREDGTVGGAADQSPESLLQLKALKPGVIQILGVKTSRFLCQRPDGALYGSLHFDPEACSFRELLLEDGYNVY[Phe(4-Ac)](PEG about 30 kDa)SEAHGLPLHLGSGRGPARFLPLPGLPPAPPEPPGILAPQPPDVGSSDPLSMVEPSQGRSPSYAS,5.9,28,5.4,8.27,
Compound 32 (Non-Pegylated Control) (ligand) MHHHHHHPIPDSSPLLQFGGQVRQRYLYTDDAQQTEAHLEIREDGTVGGAADQSPESLLQLKALKPGVIQILGVKTSRFLCQRPDGALYGSLHFDPEACSFRELLLEDGYNVYQSEAHGLPLHLPGNKSPHRDPAPRGPARFLPLPGLPPALPEPPGILAPQPPDVGSSDPLSMVGPSQGRSPSYAS,,8,,,
Pegylated Compound 1 (ligand) MHPIPDSSPLLQFGGQVRQRYLYTDDAQQTEAHLEIREDGTVGGAADQSPESLLQLKALKPGVIQILGVKTSRFLCQRPDGALYGSLHFDPEACSFRELLLEDGYNVY[Phe(4-Ac)](PEG 30 kDa)SEAHGLPLHLPGNKSPHRDPAPRGPARFLPLPGLPPAPPEPPGILAPQPPDVGSSDPLSMVGPSQGRSPSYAS,,14,3.6,8.44,6.7
